According to patent US5599792A, “Bone-stimulating, non-vasoactive parathyroid hormone variants” (Allelix Biopharmaceuticals Inc., priority 1994, dated 1997):
Positions count from the first letter of the chain named.

B1: [Val^8 Leu^18 ]hPTH (protein, UniProt P01270 32-115, looked up, variant M8V M18L)
Parathyroid hormone: SVSEIQLVHNLGKHLNSLERVEWLRKKLQDVHNFVALGAPLAPRDAGSQRPRKKEDNVLVESHEKSLGEADKADVNVLTKAKSQ
modifications: Parathyroid hormone
B2: [Ala^8 ]hPTH (protein, UniProt P01270 32-115, looked up, variant M8A)
Parathyroid hormone: B1 Parathyroid hormone with V8A, L18M
modifications: Parathyroid hormone
B3: [Cys^8 ]hPTH (protein, UniProt P01270 32-115, looked up, variant M8C)
Parathyroid hormone: B1 Parathyroid hormone with V8C, L18M
B4: [Lys^8 Leu^18 ]: structurally related human PTH variant presented for comparison; Met8 replaced by Lys, Leu at 18 (protein, UniProt P01270 32-115, looked up, variant M8K M18L)
Parathyroid hormone: B1 Parathyroid hormone with V8K
modifications: Parathyroid hormone
B5: [Cys^8 Leu^18 ]hpTH (protein, UniProt P01270 32-115, looked up, variant M8C M18L)
Parathyroid hormone: B1 Parathyroid hormone with V8C

system: rat osteosarcoma cells of the UMR line (UMR-106), adenylate cyclase activity; experiment: UMR-106 based adenylate cyclase assay (cAMP formation); assay type: cell-based; conditions: UMR-106 cells, radiometric cAMP formation; read-out: EC50 (concentration of PTH or variant effective for half-maximal stimulation of adenylate cyclase activity)
Description: In the present specification, "bone stimulating activity" is defined in the context of the osetosarcoma-based adenylate cyclase assay employed conventionally in the art. Briefly, this assay provides an in vitro determination of the extent to which PTH stimulates adenylate cyclase activity in rat osteosarcoma cells of the `UMR` lineage, and thus provides an indication of PTH effects on bone tissue in vivo. Protocols for conducting the assay have been described by Rodan et al, 1983, J. Clin. Invest., 72:1511 (in which the osteosaracoma cells of the ROS lineage are employed) and by Rabbani et al, 1988, Endocrinol., 123:2709 (which employs the line UMR-106).
Thawed or fresh samples of human PTH(1-84) and of PTH variants obtained as described above were then evaluated for biological activity in a UMR-106 based adenylate cyclase assay and the protocol as described by Rabbini et al, 1988, Endocrinology, 123:2709, which is incorporated herein by reference. As noted, rat osteosarcoma cells of the UMR line are stimulated by PTH to produce adenylate cyclase, an enzyme which catalyzes intracellular conversion of ATP to its cylic monophosphate analogue, cAMP. In this assay therefore, PTH activity is determined by assaying radiometrically the formation of cAMP in PTH-stimulated UMR cells. The results of the assays, expressed in terms of EC50 (concentration of PTH or variant effective for half-maximal stimulation of adenylate cyclase activity), are presented in Table 1.

EC50 [nM] | Molecule
2 | human PTH(1-84)
110 | B1
1200 | B2
400 | B3
> 5000 | B4
200 | B5
